Biological target: the molecule itself
Experiment: cryo-EM particle classification

B1: NTD-truncated human NPC1L1 in the cholesterol-enriched form (domain or fragment, UniProt Q9UHC9-2 265-1332, looked up)
chain: AIARPQALDSTFYLGQMPGSLVLIIILCSVFAVVTILLVGFRVAPARDKSKMVDPKKGTSLSDKLSFSTHTLLGQFFQGWGTWVASWPLTILVLSVIPVVALAAGLVFTELTTDPVELWSAPNSQARSEKAFHDQHFGPFFRTNQVILTAPNRSSYRYDSLLLGPKNFSGILDLDLLLELLELQERLRHLQVWSPEAQRNISLQDICYAPLNPDNTSLYDCCINSLLQYFQNNRTLLLLTANQTLMGQTSQVDWKDHFLYCANAPLTFKDGTALALSCMADYGAPVFPFLAIGGYKGKDYSEAEALIMTFSLNNYPAGDPRLAQAKLWEEAFLEEMRAFQRRMAGMFQVTFMAERSLEDEINRTTAEDLPIFATSYIVIFLYISLALGSYSSWSRVMVDSKATLGLGGVAVVLGAVMAAMGFFSYLGIRSSLVILQVVPFLVLSVGADNIFIFVLEYQRLPRRPGEPREVHIGRALGRVAPSMLLCSLSEAICFFLGALTPMPAVRTFALTSGLAVILDFLLQMSAFVALLSLDSKRQEASRLDVCCCVKPQELPPPGQGEGLLLGFFQKAYAPFLLHWITRGVVLLLFLALFGVSLYSMCHISVGLDQELALPKDSYLLDYFLFLNRYFEVGAPVYFVTTLGYNFSSEAGMNAICSSAGCNNFSFTQKIQYATEFPEQSYLAIPASSWVDDFIDWLTPSSCCRLYISGPNKDKFCPSTVNSLNCLKNCMSITMGSVRPSVEQFHKYLPWFLNDRPNIKCPKGGLAAYSTSVNLTSDGQVLTSRFMAYHKPLKNSQDYTEALRAARELAANITADLRKVPGTDPAFEVFPYTITNVFYEQYLTILPEGLFMLSLCLVPTFAVSCLLLGLDLRSGLLNLLSIVMILVDTVGFMALWGISYNAVSLINLVSAVGMSVEFVSHITRSFAISTKPTWLERAKEATISMGSAVFAGVAMTNLPGILVLGLAKAQLIQIFFFRLNLLITLLGLLHGLVFLPVILSYVGPDVNPALALEQKRAEEAVAAVMVASCPNHPSRVSTADNIYVNHSFEGSIKGAGAISNFLPNNGRQF
modifications: N-glycosylated (10 N-glycosylation sites seen in the density map)
binding result: binds
